{"source": "patent US6576455B1", "about": "“Structure-based designed herbicide resistant products” (priority 1995, dated 2003)", "key": {"[1]": {"system": "tobacco plants", "assay": "Germination tests of tobacco seeds in the presence of CL 299,263 (imazamox)", "format": "in vivo, Nicotiana tabacum", "details": "2.5 μM CL 299,263", "description": "Tobacco plants transformed with rationally designed AHAS genes as described in Example 8 above were also tested for cross-resistance to another herbicide, CL 299,263 (also known as imazamox)."}, "[2]": {"system": "tobacco shoots", "assay": "Root formation of tobacco shoots on medium containing 0.25 μM imazethapyr", "format": "in vivo, Nicotiana tabacum cv. Wisconsin 38", "details": "0.25 μM imazethapyr in medium", "experimental": "FIG. 13 is a photograph showing the root development of tobacco plants transformed with the Arabidopsis AHAS gene containing either the Met124Ile or Arg199Glu mutation and a non-transformed control. Plants were grown for 18 days after transfer into medium containing 0.25 μM imazethapyr.\n(§1) Leaf disc transformation of Nicotiana tabacum cv. Wisconsin 38 was performed as described by Horsch et al. (Science, 227: 1229-1231, 1985) with slight modifications. Leaf discs were cut from plants grown under sterile conditions and co-cultivated upsidedown in Murashige Skoog media (Sigma Chemical Co., St. Louis, Mo.) for 2-3 days at 25° C. in darkness with Agrobacterium tumefaciens strains containing plasmids pJK002, pJK003, or pJK004. The discs were blotted dry and transferred to regeneration Murashige Skoog medium with B5 vitamins containing 1 mg/L benzyladenine and 0.1 mg/l 1-Napthyl Acetic Acid, 100 mg/L kanamycin, and 500 mg/L cefotaxime (all obtained from Sigma).\nInitially, transformants were selected by kanamycin resistance conferred by the nptII gene present in the transformation vector. Shoots derived from the leaf discs were excised and placed on fresh Murashige Skoog hormone free media containing cefotaxime and kanamycin.\nKanamycin-resistant tobacco shoots were transferred to medium containing a 0.25 μM imazethapyr. […]"}, "[3]": {"system": "Arabidopsis AHAS protein", "details": "no herbicide", "experimental": "(a) specific or catalytic activity for conversion of pyruvate to acetolactate (expressed as units/mg pure AHAS, wherein a unit of activity is defined as 1 μmole acetolactate produced/hour), or for condensation of pyruvate and 2-ketobutyrate to form acetohydroxybutyrate (expressed as units/mg pure AHAS, wherein a unit of activity is defined as 1μ mole acetohydroxybutyrate produced/hr.;\n(§2) The enzymatic properties of wild-type and variant AHAS produced in E. coli were measured by a modification of the method of Singh et al. (Anal. Biochem […]:173-179, 1988) as follows:\n(§3) A reaction mixture containing 1× AHAS assay buffer (50 mM HEPES pH 7.0, 100 mM pyruvate, 10 mM MgCl2, 1 mM thiamine pyrophosphate (TPP), and 50 μM flavin adenine dinucleotide (FAD)) was obtained either by dilution of enzyme in 2× assay buffer or by addition of concentrated enzyme to 1× AHAS assay buffer. All assays containing imazethapyr and associated controls contained a final concentration of 5% DMSO due to addition of imazethapyr to assay mixtures as a 50% DMSO solution. Assays were performed in a final volume of 250 μL at 37° C. in microtiter plates. After allowing the reaction to proceed for 60 minutes, acetolactate accumulation was measured […] as described by Singh et al., Anal. Biochem 171:173-179, 1988."}, "[4]": {"system": "Arabidopsis AHAS protein", "details": "increasing concentrations of imazethapyr, 5% DMSO; FIGS. 7, 9, 10, 11", "experimental": "as §2, §3"}, "[5]": {"system": "tobacco plants", "assay": "Spraying of transformed tobacco plants with imazethapyr", "format": "in vivo, Nicotiana tabacum cv. Wisconsin 38", "details": "twice the field rate (100 g/ha) of imazethapyr", "experimental": "as §1\nKanamycin-resistant tobacco shoots were transferred to medium containing a 0.25 μM imazethapyr."}}}
{"molecule": "COCc1cnc(C2=NC(C)(C(C)C)C(=O)N2)c(C(=O)O)c1", "note": "(stereo not drawn) [CL 299,263, imazamox]", "values": [{"measurement": "effect on wild-type tobacco plants", "setting": "[1]", "value": "severe stunting and bleaching"}]}
{"molecule": "CCc1cnc(C2=NC(C)(C(C)C)C(=O)N2)c(C(=O)O)c1", "note": "(stereo not drawn) [imazethapyr]", "values": [{"measurement": "root formation of non-transformed tobacco shoots (endogenous wild-type AHAS)", "setting": "[2]", "value": "not able to initiate root formation"}]}
{"molecule": "Arg199Glu: Arabidopsis AHAS variant (and gene) with Arg199Glu mutation, corresponding to maize Arg128Glu; vector pJK004 (protein, UniProt P17597 56-670, looked up, variant R199E) Acetolactate synthase, …: SSSPSSISAVLNTTTNVTTTPSPTKPTKPETFISRFAPDQPRKGADILVEALERQGVETVFAYPGGASMEIHQALTRSSSIRNVLPRHEQGGVFAAEGYARSSGKPGICIATSGPGATNLVSGLADALLDSVPLVAITGQVPREMIGTDAFQETPIVEVTRSITKHNYLVMDVEDIPRIIEEAFFLATSGRPGPVLVDVPKDIQQQLAIPNWEQAMRLPGYMSRMPKPPEDSHLEQIVRLISESKKPVLYVGGGCLNSSDELGRFVELTGIPVASTLMGLGSYPCDDELSLHMLGMHGTVYANYAVEHSDLLLAFGVRFDDRVTGKLEAFASRAKIVHIDIDSAEIGKNKTPHVSVCGDVKLALQGMNKVLENRAEELKLDFGVWRNELNVQKQKFPLSFKTFGEAIPPQYAIKVLDELTDGKAIISTGVGQHQMWAAQFYNYKKPRQWLSSGGLGAMGFGLPAAIGASVANPDAIVVDIDGDGSFIMNVQELATIRVENLPVKVLLLNNQHLGMVMQWEDRFYKANRAHTFLGDPAQEDEIFPNMLLFAAACGIPAARVTKKADLREAIQTMLDTPGPYLLDVICPHQEHVLPMIPSGGTFNDVITEGDGRIKY", "values": [{"measurement": "Specific Activity", "setting": "[3]; b134 expresses specific activity as units/mg pure AHAS, 1 unit = 1 μmole acetolactate produced/hour", "value": 114}, {"measurement": "% Catalytic Activity as Compared to Wild Type", "setting": "[3]; relative to wild-type AHAS", "value": 114, "unit": "%"}, {"measurement": "resistance of enzymatic activity to imazethapyr (PURSUIT)", "setting": "[4]", "value": "improved levels of resistance"}, {"measurement": "resistance of transformed tobacco plants to spraying with imazethapyr", "setting": "[5]", "value": "resistant"}]}
